Test [1] has as its target AE.A244 V1V2 Tags (HIV-1).
The target in the next test is Env of AE.92TH023 virus (HIV-1). Kind of test: cell-based or functional assay.
The next test has as its target Env of AE.CM244 virus (HIV-1). Kind of test: cell-based or functional assay.
The next test concerns the target Env of B.MN virus (HIV-1). In words: cell-based or functional assay.
A further test has as its target Env of SHIV SF162P3 (SHIV). Kind of test: cell-based or functional assay.
The next test has as its target Env of SHIV-SF162P4 (SHIV). In words: cell-based or functional assay.
Another test concerns the target Env of SHIV-BaL (SHIV). In words: cell-based or functional assay.
Another test deals with Env of SHIV-1157ipEL-p (SHIV). In words: cell-based or functional assay.
The next test deals with Env of SHIV-1157ipd3N4 (SHIV). Kind of test: cell-based or functional assay.
Test [2] addresses AE.A244 V1V2 Tags (HIV-1). Kind of test: SPR, mAb captured on anti-Fc, V1/V2 tags injected. A general note: SPR reads the build-up and loss of mass on a sensor chip optically.
In test [3] the target is AE.A244 V1V2 Tags (HIV-1). In words: ELISA; markers as in the legend printed on D00157.
The next test concerns the target gp70 A.92RW020V1V2 (murine leukemia virus; HIV-1). Kind of test: ELISA, mAb 0.001-100 ug/ml on coated V1V2 scaffold, OD450. Background: In an ELISA, binding on a coated surface is turned into a signal by an enzyme label.
Test [4] has as its target T1, J08 A.92RW020V1V2/N156QN160Q (HIV-1).
T1 construct: also called J08 A.92RW020VV1V2/N156QN160Q
The description is as above.

Another test has as its target T2, gp70 B.HXB2/BALV1V2 (murine leukemia virus; HIV-1).
T2 chain: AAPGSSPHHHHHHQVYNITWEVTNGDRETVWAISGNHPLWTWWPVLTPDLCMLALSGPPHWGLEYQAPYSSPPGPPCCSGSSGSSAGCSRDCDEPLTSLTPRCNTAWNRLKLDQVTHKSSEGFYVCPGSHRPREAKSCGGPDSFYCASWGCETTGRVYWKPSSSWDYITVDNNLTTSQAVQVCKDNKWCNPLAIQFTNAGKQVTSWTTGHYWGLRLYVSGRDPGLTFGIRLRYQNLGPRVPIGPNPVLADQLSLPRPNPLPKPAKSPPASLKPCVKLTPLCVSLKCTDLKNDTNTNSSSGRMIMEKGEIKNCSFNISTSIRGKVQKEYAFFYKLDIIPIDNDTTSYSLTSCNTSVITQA
Described as above.

For test [5], the target named is T3, gp70 B.HXB2/BALV1V2/N156QN160Q (murine leukemia virus; HIV-1).
T3 chain: T2 chain with N311Q, N315Q
Described as above.

In test [6] the target is T4, J08 B.HXB2/BALV1V2N156QN160Q (HIV-1).
T4 chain: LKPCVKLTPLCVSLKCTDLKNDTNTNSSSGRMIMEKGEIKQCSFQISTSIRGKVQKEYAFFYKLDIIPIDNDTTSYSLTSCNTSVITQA
Described as above.

In a further test the target is T5, J08 C.97ZA012V1V2 (HIV-1).
T5 chain: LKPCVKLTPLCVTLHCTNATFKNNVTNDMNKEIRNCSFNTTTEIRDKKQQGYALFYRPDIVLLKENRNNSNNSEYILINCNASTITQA
The description is as above.

In a further test the target is D.9009SA V1/V2 tags. In words: ELISA, OD405 at 10 ug/ml.
In another test the target is J08 A.92RW020V1V2 (HIV-1). In words: SPR (BIAcore), mAb captured on anti-Fc surface, V1V2 protein injected as analyte, Synagis surface subtracted, global 1:1 Langmuir fit.
The next test has as its target T6, gp70 B.CaseA2 V1/V2 (HIV-1 V1V2 on murine leukemia virus gp70).
T6 construct: also called B.gp70CaseA2 V1/V2; gp70 B.CaseAV1V2
T6 chain: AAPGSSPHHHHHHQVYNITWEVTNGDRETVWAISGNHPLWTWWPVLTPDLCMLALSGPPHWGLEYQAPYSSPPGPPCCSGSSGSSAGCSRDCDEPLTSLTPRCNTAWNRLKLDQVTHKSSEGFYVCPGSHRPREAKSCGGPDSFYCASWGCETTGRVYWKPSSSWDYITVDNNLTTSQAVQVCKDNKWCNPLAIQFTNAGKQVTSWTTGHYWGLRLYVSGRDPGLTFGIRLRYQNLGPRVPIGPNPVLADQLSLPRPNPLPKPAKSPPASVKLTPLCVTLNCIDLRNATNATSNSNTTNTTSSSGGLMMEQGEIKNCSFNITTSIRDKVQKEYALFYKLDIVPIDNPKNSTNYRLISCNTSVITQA
The test is described as above.

Here are results for four molecules from patent US9988424 (DUKE UNIVERSITY, dated 2018).

As a reminder, the Kd is the constant that tells how readily two partners part at equilibrium. Low values mean tighter binding, high ones weaker binding. One may read the koff as a measure of how fast the partners let go of each other. High values mean a short-lived complex, low ones a long-lived complex. A word on the kon: it is a measure of how fast the partners come together. Usually EC50 (read off the curve) stands for the concentration needed to bring the measured effect to its halfway point. Low readings indicate an effect from little substance, high ones a need for much substance.

Residue numbers refer to the chain shown, from its start. Read-outs that look alike come from different tables or passages of the source.

B1: CH59 (antibody, V domains shown)
VH: EVQLVESGGGLVQPGRSLRLSCAASGFTFDDGAMHWVRQAPGKGLEWVSGISWNSNIIAYADSVKGRFTISRDNAKNSLYLEMNSLRVEDTALYYCAKDSPRGELPLNYWGQGTLVTVSS
VL: SYELTQPPSVSVSPGQTARITCSGDALPKNYAYWYQQKSGQAPVLVIYEDSKRPSGIPERFSGSSSGTMATLTISGAQVEDEADYYCYSTDSSGNHRVFGGGTKLTVL
notes: also called mAb CH59
In the test with AE.A244 V1V2 Tags [1], B1 returned a Kd of 0.48 nM, a koff of 0.00011 s⁻¹ and an on-rate constant (kon) of 238000 M⁻¹ s⁻¹. For the same molecule, the “EC50, neutralization of AE.TH023” value in the test with Env of AE.92TH023 virus was 12.1 µg/mL. Besides, the “EC50, neutralization of AE.CM244” value in the test with Env of AE.CM244 virus was greater than 50 µg/mL. The “EC50, neutralization of B.MN” value with Env of B.MN virus was greater than 50 µg/mL. Besides, in the test with Env of SHIV SF162P3, the “EC50, neutralization of SHIV SF162P3” value was greater than 50 µg/mL. Further, in the test with Env of SHIV-SF162P4, the “EC50, neutralization of SHIV-SF162P4” value is greater than 50 µg/mL. The “EC50, neutralization of SHIV-BaL” value with Env of SHIV-BaL is greater than 50 µg/mL. Besides, the “EC50, neutralization of SHIV-1157ipEL-p” value with Env of SHIV-1157ipEL-p turned out to be 24.6 µg/mL. Moreover, in the test with Env of SHIV-1157ipd3N4, the “EC50, neutralization of SHIV-1157ipd3N4” value was greater than 50 µg/mL. The same molecule displayed a Kd in the test with AE.A244 V1V2 Tags [2] of 1 nM.

B2: CH59 reverted unmutated ancestor antibody (antibody, V domains shown)
VH: B1 VH with G32Y, N56G, I57S, A59G, E82Q, V88A, L107F, N108D
VL: B1 VL with N30K
notes: also called CH59 RUA; CH59_RUA
Consider B2, for which the concentration for a half-maximal effect (EC50 (read off the curve)) with AE.A244 V1V2 Tags [3] is roughly 0.08 µg/mL.

B3: PG16 (antibody, V domains shown)
VH: QEQLVESGGGVVQPGGSLRLSCLASGFTFHKYGMHWVRQAPGKGLEWVALISDDGMRKYHSDSMWGRVTISRDNSKNTLYLQFSSLKVEDTAMFFCAREAGGPIWHDDVKYYDFNDGYYNYHYMDVWGKGTTVTVSS
VL: QSALTQPASVSGSPGQTITISCNGTSSDVGGFDSVSWYQQSPGKAPKVMVFDVSHRPSGISNRFSGSKSGNTASLTISGLHIEDEGDYFCSSLTDRSHRIFGGGTKVTVL
notes: also called mAb PG16; bnAb PG16
B3: the binding result (with gp70 A.92RW020V1V2; in test [4]; with gp70 B.HXB2/BALV1V2; in test [5]; in test [6]; with J08 C.97ZA012V1V2) was “no binding (tested: 100 ug/ml)” each time.

B4: 697D (antibody, V domains shown)
VH: QVQLVQSGAEVKKPGSSVKVSCKASGGNFNTYTISWVRQAPGQGLEWMGRIIPIFGIVNPAQKFPGRVTINVDKSTNTAYMELSSLRSEDTAVYYCATSGVGLHFGYFDYWGQGTQVTVSS
VL: QSVLTQPPSVSGAPGQRVTISCTGSSSNIGAHYDVHWYQQLPGTAPKLLIYGNSNRPSGVPDRFSGSKSGTSASLAITGLQAEDEADYYCQSYDSSLSGYVFGTGTKVTVL
notes: also called mAb 697D; V2 conformational mAb 697D
Regarding B4, the binding result with D.9009SA V1/V2 tags was “no binding (tested: 10 ug/ml)”. For the same molecule, in the test with J08 A.92RW020V1V2, the dissociation constant (Kd) amounted to 57.5 nM, the dissociation rate constant (koff) came out at 0.008 s⁻¹ and the kon was determined as 140000 M⁻¹ s⁻¹. For the same molecule, in the test with gp70 B.CaseA2 V1/V2, binding was characterised by a dissociation constant (Kd) of 36.5 nM, the koff was determined as 0.00038 s⁻¹ and the on-rate (kon) was 10000 M⁻¹ s⁻¹.
